Data taken from patent US20090092614A1.

Columns and labels:
[1] = target: murine IGF-1R(1-903)-Fc (murine; human) (UniProt Q60751); test: SPR, Fab over receptor-Fc captured on M13-C06 surface
[2] = target: murine IGF-1R(1-903)-Fc (murine; human) (UniProt Q60751); test: SPR

murine IGF-1R(1-903)-Fc (murine; human), sequence (Q60751 31-933 limits assumed, form in doubt): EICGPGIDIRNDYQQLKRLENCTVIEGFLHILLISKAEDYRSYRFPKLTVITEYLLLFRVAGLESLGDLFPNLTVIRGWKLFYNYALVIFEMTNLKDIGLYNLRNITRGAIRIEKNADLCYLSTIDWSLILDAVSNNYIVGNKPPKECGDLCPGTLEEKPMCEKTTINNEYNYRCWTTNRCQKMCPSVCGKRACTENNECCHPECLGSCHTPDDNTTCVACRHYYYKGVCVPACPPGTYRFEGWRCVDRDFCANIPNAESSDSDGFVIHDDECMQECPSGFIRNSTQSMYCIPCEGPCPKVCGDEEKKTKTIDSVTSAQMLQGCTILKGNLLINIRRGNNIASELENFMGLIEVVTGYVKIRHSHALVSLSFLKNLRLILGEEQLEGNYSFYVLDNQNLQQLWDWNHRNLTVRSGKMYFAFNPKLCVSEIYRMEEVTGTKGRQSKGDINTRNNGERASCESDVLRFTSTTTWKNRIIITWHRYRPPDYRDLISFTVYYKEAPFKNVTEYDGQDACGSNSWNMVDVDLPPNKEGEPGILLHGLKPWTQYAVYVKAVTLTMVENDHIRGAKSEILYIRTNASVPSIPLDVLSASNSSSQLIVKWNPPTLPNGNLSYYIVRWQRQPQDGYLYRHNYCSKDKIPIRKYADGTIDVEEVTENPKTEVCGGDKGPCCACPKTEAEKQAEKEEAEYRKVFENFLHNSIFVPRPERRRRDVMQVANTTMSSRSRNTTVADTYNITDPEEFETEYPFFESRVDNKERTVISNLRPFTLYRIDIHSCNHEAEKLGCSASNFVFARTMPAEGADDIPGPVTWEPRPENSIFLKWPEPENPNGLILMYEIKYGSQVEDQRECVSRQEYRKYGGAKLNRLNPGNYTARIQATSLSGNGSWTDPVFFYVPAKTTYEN

B1: M13-C06 Fab (Fab, V domains shown)
VH: EVQLLESGGGLVQPGGSLRLSCAASGFTFSIYRMQWVRQAPGKGLEWVSGISPSGGTTWYADSVKGRFTISRDNSKNTLYLQMNSLRAEDTAVYYCARWSGGSGYAFDIWGQGTMVTVSS
VL: DIQMTQSPLSLSASVGDRVTITCQASRDIRNYLNWYQQKPGKAPKLLIYDASSLQTGVPSRFGGSGSGTDFSFTIGSLQPEDIATYYCQQFDSLPHTFGQGTKLEIK
[1]
  Biacore Relative RUmax: 0
[2]
  fold decrease in binding against human IGF-1R: 100 fold
